This is an account of results in patent publication US20150344570A1 (published 2015).

T1: FcγRIIb extracellular domain with C-terminal His tag (human, UniProt P31994 43-217)
T1 construct: extracellular domain; Expressed in FreeStyle293 cells; analyte in the SPR assay; also called FcgRIIb; 2b
T1 sequence (looked up): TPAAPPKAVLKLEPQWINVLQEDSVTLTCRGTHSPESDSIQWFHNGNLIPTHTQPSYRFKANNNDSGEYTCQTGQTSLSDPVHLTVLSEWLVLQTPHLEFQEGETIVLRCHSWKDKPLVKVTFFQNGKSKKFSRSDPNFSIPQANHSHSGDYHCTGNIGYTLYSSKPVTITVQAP

T2: FcγRIIb, extracellular domain with C-terminal His tag (human, UniProt P31994 43-217)
T2 construct: extracellular domain; made in FreeStyle293 cells; analyte in the Biacore assay; also called 2b; FcgRIIb
T2 sequence (looked up): T1 sequence (looked up)

T3: FcγRIIa R (FcγRIIa allotype with Arg at position 131), extracellular domain with C-terminal His tag (human, UniProt P12318 34-217)
T3 construct: extracellular domain; made in FreeStyle293 cells; analyte in the Biacore assay; also called FcγRIIa type R; 2aR
T3 sequence (looked up): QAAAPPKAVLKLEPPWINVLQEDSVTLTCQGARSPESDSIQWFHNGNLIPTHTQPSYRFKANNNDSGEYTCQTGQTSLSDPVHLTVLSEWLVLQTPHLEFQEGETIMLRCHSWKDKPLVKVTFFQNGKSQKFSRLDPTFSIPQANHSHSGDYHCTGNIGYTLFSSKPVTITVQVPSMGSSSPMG

B1: GpH7-A5/GpH7-B3 variant Q295_02A/GpL16-k0 (He Ab) (antibody, human IgG1, kappa)
heavy 1: not shown
heavy 2: not shown
light: DIVMTQSPLSLPVTPGEPASISCQASESLVHSNRNTYLHWYLQKPGQSPQLLIYKVSNRFSGVPDRFSGSGSGTDFTLKISRVEAEDVGVYYCSQNTHVPPTFGQGTKVEIERTVAAPSVFIFPPSDEQLKSGTASVVCLLNNFYPREAKVQWKVDNALQSGNSQESVTEQDSKDSTYSLSSTLTLSKADYEKHKVYACEVTHQGLSSPVTKSFNRGEC
notes: He Ab: mutation in one H chain only
B2: GpH7-A5/GpH7-B3 variant E333_04F/GpL16-k0 (antibody, human IgG1, kappa)
heavy 1: not shown
heavy 2: not shown
light: B1 light
notes: heterodimerized IgG1, mutation in one H chain only; also called He Ab
B3: GpH7-A5/GpH7-B3 variant H268_12R/GpL16-k0 (antibody, human IgG1, kappa)
heavy 1: not shown
heavy 2: not shown
light: B1 light
notes: as for B2
B4: GpH7-A5/GpH7-B3 variant I336_18N/GpL16-k0 (antibody, human IgG1, kappa)
heavy 1: not shown
heavy 2: not shown
light: B1 light
notes: as for B2
B5: GpH7-A5/GpH7-B3 variant A330_15Y/GpL16-k0 (antibody, human IgG1, kappa)
heavy 1: not shown
heavy 2: not shown
light: B1 light
notes: as for B2
B6: GpH7-A5/GpH7-B3 variant L234_04F/GpL16-k0 (antibody, human IgG1, kappa)
heavy 1: not shown
heavy 2: not shown
light: B1 light
notes: as for B2
B7: GpH7-A5/GpH7-B3 variant A330_19Q/GpL16-k0 (antibody, human IgG1, kappa)
heavy 1: not shown
heavy 2: not shown
light: B1 light
notes: as for B2
B8: GpH7-A5/GpH7-B3 variant A330_12R/GpL16-k0 (antibody, human IgG1, kappa)
heavy 1: not shown
heavy 2: not shown
light: B1 light
notes: as for B2
B9: GpH7-A5/GpH7-B3 variant E333_05P/GpL16-k0 (antibody, human IgG1, kappa)
heavy 1: not shown
heavy 2: not shown
light: B1 light
notes: as for B2
B10: GpH7-A5/GpH7-B3 variant N325_14T/GpL16-k0 (antibody, human IgG1, kappa)
heavy 1: not shown
heavy 2: not shown
light: B1 light
notes: as for B2
B11: GpH7-A5/GpH7-B3 variant E333_08L/GpL16-k0 (antibody, human IgG1, kappa)
heavy 1: not shown
heavy 2: not shown
light: B1 light
notes: as for B2
B12: GpH7-A5/GpH7-B3 variant N325_10E/GpL16-k0 (antibody, human IgG1, kappa)
heavy 1: not shown
heavy 2: not shown
light: B1 light
notes: as for B2
B13: GpH7-A5/GpH7-B3 variant E333_09D/GpL16-k0 (antibody, human IgG1, kappa)
heavy 1: not shown
heavy 2: not shown
light: B1 light
notes: as for B2
B14: GpH7-A5/GpH7-B3 variant K326_12R/GpL16-k0 (antibody, human IgG1, kappa)
heavy 1: not shown
heavy 2: not shown
light: B1 light
notes: as for B2
B15: GpH7-A5/GpH7-B3 variant E333_07I/GpL16-k0 (antibody, human IgG1, kappa)
heavy 1: not shown
heavy 2: not shown
light: B1 light
notes: as for B2
B16: GpH7-A5/GpH7-B3 variant E333_15Y/GpL16-k0 (antibody, human IgG1, kappa)
heavy 1: not shown
heavy 2: not shown
light: B1 light
notes: as for B2
B17: GpH7-A5/GpH7-B3 variant H268_11K/GpL16-k0 (antibody, human IgG1, kappa)
heavy 1: not shown
heavy 2: not shown
light: B1 light
notes: as for B2
B18: GpH7-A5/GpH7-B3 variant A330_11K/GpL16-k0 (antibody, human IgG1, kappa)
heavy 1: not shown
heavy 2: not shown
light: B1 light
notes: as for B2

The target of the first test is T1, FcγRIIb extracellular domain with …. Kind of test: SPR (Biacore), relative binding, HeCon Ab = 100. (In general: SPR reads the build-up and loss of mass on a sensor chip optically.)
In the case of B1, the He/Con_2b was 79.7 % of HeCon Ab (=100).

For another test, the target named is T4, FcγRIa extracellular domain with C-terminal His tag (human, UniProt P12314 16-292).
T4 construct: extracellular domain; Expressed in FreeStyle293 cells; analyte in the SPR assay; also called FcgRI; 1a
T4 sequence (P12314 16-292): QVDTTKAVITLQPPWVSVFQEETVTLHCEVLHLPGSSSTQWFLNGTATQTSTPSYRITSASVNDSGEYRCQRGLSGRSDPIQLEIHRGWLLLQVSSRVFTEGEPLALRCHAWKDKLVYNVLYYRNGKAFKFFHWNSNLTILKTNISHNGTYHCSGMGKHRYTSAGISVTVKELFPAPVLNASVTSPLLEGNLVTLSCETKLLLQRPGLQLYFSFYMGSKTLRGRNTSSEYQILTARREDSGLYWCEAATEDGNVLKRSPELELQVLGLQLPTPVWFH
Nature of the test: SPR (Biacore), relative binding, HeCon Ab = 100.
B1: the He/Con_1a is 104 % of HeCon Ab (=100).

The next test deals with T2, FcγRIIb, extracellular domain with …. Kind of test: SPR (Biacore), antibody captured, FcγR analyte; vs GpH7-A5/GpH7-B3/GpL16-k0 = 100. As to the method: (§1) The heterodimerized antibodies He Abs in which one of the H chains was introduced with an alteration were assayed for their binding activities to each activating FcγR and inhibitory FcγR according to the method described in Example 4. […] The activating FcγRs in FIGS. 26, 27, 28, and 29 are FcγRIa, FcγRIIa (R), FcγRIIa (H), and FcγRIIIa, respectively.
(§2) Analysis of interaction between objective antibody and the FcγR was carried out using Biacore T100 (GE Healthcare). HBS-EP+ (GE Healthcare) was used as the running buffer, and the measurement temperature was set to 25° C. Chips produced by immobilizing the antigen peptide by the amine coupling method to a Series S Sencor Chip CM5 (GE Healthcare), or alternatively, chips produced by allowing preliminarily biotinylated antigen peptides to interact with and immobilize onto a Series S Sensor Chip SA (certified) (GE Healthcare) were used. Antibodies of interest were captured onto an antigen peptide-immobilized chip, and allowed to interact to each FcγR diluted with running buffer. To regenerate and repeatedly use the chip, the antibodies captured on the chip were washed off by reacting 10 mM glycine-HCl, pH 1.5.
On to B2, for which the He/Con_2b is 94.6 relative (HeCon Ab = 100).

On to B3, for which the He/Con_2b was 89.8 relative (HeCon Ab = 100).

As for B4, the He/Con_2b is 97.6 relative (HeCon Ab = 100).

For the molecule B5, the He/Con_2b was 95 relative (HeCon Ab = 100).

Consider B6, for which the He/Con_2b was 99.8 relative (HeCon Ab = 100).

Take B7: the He/Con_2b is 90.8 relative (HeCon Ab = 100).

On to B8, for which the He/Con_2b is 84.8 relative (HeCon Ab = 100).

On to B9, for which the He/Con_2b is 97.7 relative (HeCon Ab = 100).

Consider B10, for which the He/Con_2b was 91.6 relative (HeCon Ab = 100).

For B11, the He/Con_2b is 95 relative (HeCon Ab = 100).

Consider B12, for which the He/Con_2b was 95.9 relative (HeCon Ab = 100).

On to B13, for which the He/Con_2b is 94.3 relative (HeCon Ab = 100).

In the case of B14, the He/Con_2b was 89.2 relative (HeCon Ab = 100).

On to B15, for which the He/Con_2b was 96.2 relative (HeCon Ab = 100).

B16: the He/Con_2b is 94.4 relative (HeCon Ab = 100).

As to B17, the He/Con_2b was 83 relative (HeCon Ab = 100).

B18: the He/Con_2b is 95 relative (HeCon Ab = 100).

For the next test, the target named is T3, FcγRIIa R (FcγRIIa allotype with Arg at …). The description is as above. As to the method:
as §1, §2
As to B2, the He/Con_2aR is 102 relative (HeCon Ab = 100).

As for B3, the He/Con_2aR is 105 relative (HeCon Ab = 100).

On to B4, for which the He/Con_2aR is 104 relative (HeCon Ab = 100).

Take B5: the He/Con_2aR is 102 relative (HeCon Ab = 100).

In the case of B6, the He/Con_2aR was 104 relative (HeCon Ab = 100).

For B7, the He/Con_2aR was 104 relative (HeCon Ab = 100).

Consider B8, for which the He/Con_2aR is 104 relative (HeCon Ab = 100).

B9: the He/Con_2aR is 105 relative (HeCon Ab = 100).

B10: the He/Con_2aR was 105 relative (HeCon Ab = 100).

B11: the He/Con_2aR is 103 relative (HeCon Ab = 100).

As for B12, the He/Con_2aR was 105 relative (HeCon Ab = 100).

With B13, the He/Con_2aR was 103 relative (HeCon Ab = 100).

Take B14: the He/Con_2aR was 103 relative (HeCon Ab = 100).

In the case of B15, the He/Con_2aR is 104 relative (HeCon Ab = 100).

For the molecule B16, the He/Con_2aR was 101 relative (HeCon Ab = 100).

For the molecule B17, the He/Con_2aR was 100 relative (HeCon Ab = 100).

For B18, the He/Con_2aR is 110 relative (HeCon Ab = 100).
